This passage reports Kd results from PMC5240642.

The Kd is the concentration at which binding is half-saturated. A higher Kd goes with a looser complex.

In the experiment the target is FcγRIIIa F158 extracellular domain (UniProt P08637). Nature of the experiment: SPR.
Chain of UniProt P08637 (P08637 17-208): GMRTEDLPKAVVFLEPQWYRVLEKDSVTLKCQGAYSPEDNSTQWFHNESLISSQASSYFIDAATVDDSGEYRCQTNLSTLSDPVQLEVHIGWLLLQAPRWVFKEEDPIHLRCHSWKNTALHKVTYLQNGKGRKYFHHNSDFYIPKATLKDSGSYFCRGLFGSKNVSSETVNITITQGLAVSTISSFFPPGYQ

“Humira® complexed with TNF homotrimer (2:1 molar ratio) (from UniProt P01375 77-233)” yielded a Kd of 6.9 nM.
Under “MSB11022 complexed with TNF homotrimer (2:1 molar ratio) (from UniProt P01375 77-233)” stands 8 nM.
